Measurements: patent US20150353909

Assays:
[1] = test system: HA3-UBQ-GST [GST: P08515]
[2] = target: K63-tetraubiquitin chains (UniProt P0CG48)
[3] = test system: purified recombinant linear UB dimers
[4] = target: K48-tetraubiquitin chains (UniProt P0CG48)
[5] = target: HA3-SUMO-GST (UniProt P55852)
[6] = test system: purified recombinant linear UB trimers
[7] = test system: purified recombinant linear UB tetramers
[8] = target: HA3-RUB-GST (UniProt Q9SHE7)

Measured: in vitro deubiquitylation activity

K48-tetraubiquitin chains, sequence (P0CG48 whole entry, looked up): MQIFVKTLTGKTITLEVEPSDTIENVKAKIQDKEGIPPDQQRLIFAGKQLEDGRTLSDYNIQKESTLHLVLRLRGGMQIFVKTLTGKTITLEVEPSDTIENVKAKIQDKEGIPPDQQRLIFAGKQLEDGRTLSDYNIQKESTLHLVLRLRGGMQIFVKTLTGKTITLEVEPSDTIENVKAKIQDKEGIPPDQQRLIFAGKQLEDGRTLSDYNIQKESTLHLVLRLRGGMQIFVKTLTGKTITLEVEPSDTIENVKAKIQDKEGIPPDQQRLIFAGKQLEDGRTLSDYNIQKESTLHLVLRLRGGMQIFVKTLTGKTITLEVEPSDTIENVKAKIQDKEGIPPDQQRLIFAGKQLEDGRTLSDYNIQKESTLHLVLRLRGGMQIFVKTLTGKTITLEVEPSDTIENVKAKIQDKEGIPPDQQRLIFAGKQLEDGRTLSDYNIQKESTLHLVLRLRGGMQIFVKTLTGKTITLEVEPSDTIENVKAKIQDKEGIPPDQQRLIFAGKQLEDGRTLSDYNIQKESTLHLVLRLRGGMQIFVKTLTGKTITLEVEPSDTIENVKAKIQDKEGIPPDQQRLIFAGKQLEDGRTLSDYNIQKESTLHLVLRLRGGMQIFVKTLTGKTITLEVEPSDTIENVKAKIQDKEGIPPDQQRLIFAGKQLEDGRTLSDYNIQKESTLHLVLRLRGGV
K63-tetraubiquitin chains, sequence (P0CG48 whole entry, looked up): as above
His-tagged OTU12, sequence (Q9SGA5 whole entry): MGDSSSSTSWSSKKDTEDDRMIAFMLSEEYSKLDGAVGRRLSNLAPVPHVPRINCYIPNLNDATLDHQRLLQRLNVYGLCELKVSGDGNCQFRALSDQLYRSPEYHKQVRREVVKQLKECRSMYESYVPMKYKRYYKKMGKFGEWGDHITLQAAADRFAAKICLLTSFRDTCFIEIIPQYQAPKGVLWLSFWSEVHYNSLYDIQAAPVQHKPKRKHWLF
His-tagged OTU11a, sequence (Q0V869 whole entry): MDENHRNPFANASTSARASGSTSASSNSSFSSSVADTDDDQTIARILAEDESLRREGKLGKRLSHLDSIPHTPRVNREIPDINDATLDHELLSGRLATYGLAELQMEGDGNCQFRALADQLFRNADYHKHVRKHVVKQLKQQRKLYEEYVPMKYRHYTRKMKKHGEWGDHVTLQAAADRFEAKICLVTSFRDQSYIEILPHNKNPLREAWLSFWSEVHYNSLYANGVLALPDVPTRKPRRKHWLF

His-tagged OTLD1a
-: [1] | [2] | [3] | [4] | [5] | [6] | [7] | [8]

His-tagged OTU5b
-: [1] | [2] | [3] | [4] | [5] | [6] | [7] | [8]

His-tagged OTU11a
-: [1] | [2] | [3] | [4] | [5] | [6] | [7] | [8]

His-tagged OTU12
-: [1] | [2] | [3] | [4] | [5] | [6] | [7] | [8]

OTU4d
-: [1] | [2] | [3] | [4] | [5] | [6] | [7] | [8]
